This is an account of results in PMC13544220, “Glycemic and bodyweight effects of GIPR coding variation reflect differences in surface expression and intrinsic functional impairment” (Science Advances, 2026).

The chains are these.
B1: p.Arg131Ser (protein, UniProt P48546 22-466, looked up, variant R131S)
Gastric inhibitory …: RAETGSKGQTAGELYQRWERYRRECQETLAAAEPPSGLACNGSFDMYVCWDYAAPNATARASCPWYLPWHHHVAAGFVLRQCGSDGQWGLWRDHTQCENPEKNEAFLDQSLILERLQVMYTVGYSLSLATLLLALLILSLFRRLHCTRNYIHINLFTSFMLRAAAILSRDRLLPRPGPYLGDQALALWNQALAACRTAQIVTQYCVGANYTWLLVEGVYLHSLLVLVGGSEEGHFRYYLLLGWGAPALFVIPWVIVRYLYENTQCWERNEVKAIWWIIRTPILMTILINFLIFIRILGILLSKLRTRQMRCRDYRLRLARSTLTLVPLLGVHEVVFAPVTEEQARGALRFAKLGFEIFLSSFQGFLVSVLYCFINKEVQSEIRRGWHHCRLRRSLGEEQRQLPERAFRALPSGSGPGEVPTSRGLSSGTLPGPGNEASRELESYC
B2: p.Ser64Ala (protein, UniProt P48546 22-466, looked up, variant S64A)
Gastric inhibitory …: B1 Gastric inhibitory … with S43A, S110R
B3: p.Arg101His (protein, UniProt P48546 22-466, looked up, variant R101H)
Gastric inhibitory …: B1 Gastric inhibitory … with R80H, S110R
B4: p.Ala207Val (protein, UniProt P48546 22-466, looked up, variant A207V)
Gastric inhibitory …: B1 Gastric inhibitory … with S110R, A186V
B5: p.Arg183Gln (protein, UniProt P48546 22-466, looked up, variant R183Q)
Gastric inhibitory …: B1 Gastric inhibitory … with S110R, R162Q
B6: p.Ser415Ile (protein, UniProt P48546 22-466, looked up, variant S415I)
Gastric inhibitory …: B1 Gastric inhibitory … with S110R, S394I
B7: p.Leu100Phe (protein, UniProt P48546 22-466, looked up, variant L100F)
Gastric inhibitory …: B1 Gastric inhibitory … with L79F, S110R
B8: p.Glu288Gly (protein, UniProt P48546 22-466, looked up, variant E288G)
Gastric inhibitory …: B1 Gastric inhibitory … with S110R, E267G
B9: p.Arg136Trp (protein, UniProt P48546 22-466, looked up, variant R136W)
Gastric inhibitory …: B1 Gastric inhibitory … with S110R, R115W
B10: p.Ile403Val (protein, UniProt P48546 22-466, looked up, variant I403V)
Gastric inhibitory …: B1 Gastric inhibitory … with S110R, I382V
B11: p.Glu354Gln (protein, UniProt P48546 22-466, looked up, variant E354Q)
Gastric inhibitory …: B1 Gastric inhibitory … with S110R, E333Q
B12: p.Ile378Met (protein, UniProt P48546 22-466, looked up, variant I378M)
Gastric inhibitory …: B1 Gastric inhibitory … with S110R, I357M
B13: p.Ser447Thr (protein, UniProt P48546 22-466, looked up, variant S447T)
Gastric inhibitory …: B1 Gastric inhibitory … with S110R, S426T
B14: p.Arg341Pro (protein, UniProt P48546 22-466, looked up, variant R341P)
Gastric inhibitory …: B1 Gastric inhibitory … with S110R, R320P
B15: p.Glu463Gln (protein, UniProt P48546 22-466, looked up, variant E463Q)
Gastric inhibitory …: B1 Gastric inhibitory … with S110R, E442Q
B16: p.Thr116Arg (protein, UniProt P48546 22-466, looked up, variant T116R)
Gastric inhibitory …: B1 Gastric inhibitory … with T95R, S110R
B17: p.Asp66Gly (protein, UniProt P48546 22-466, looked up, variant D66G)
Gastric inhibitory …: B1 Gastric inhibitory … with D45G, S110R
B18: p.Arg404His (protein, UniProt P48546 22-466, looked up, variant R404H)
Gastric inhibitory …: B1 Gastric inhibitory … with S110R, R383H
B19: p.Arg217Leu (protein, UniProt P48546 22-466, looked up, variant R217L)
Gastric inhibitory …: B1 Gastric inhibitory … with S110R, R196L
B20: p.Leu262His (protein, UniProt P48546 22-466, looked up, variant L262H)
Gastric inhibitory …: B1 Gastric inhibitory … with S110R, L241H
B21: p.Glu252Asp (protein, UniProt P48546 22-466, looked up, variant E252D)
Gastric inhibitory …: B1 Gastric inhibitory … with S110R, E231D
B22: p.Leu262Val (protein, UniProt P48546 22-466, looked up, variant L262V)
Gastric inhibitory …: B1 Gastric inhibitory … with S110R, L241V
B23: p.Ala268Val (protein, UniProt P48546 22-466, looked up, variant A268V)
Gastric inhibitory …: B1 Gastric inhibitory … with S110R, A247V
B24: p.Arg336Pro (protein, UniProt P48546 22-466, looked up, variant R336P)
Gastric inhibitory …: B1 Gastric inhibitory … with S110R, R315P
B25: p.Arg190Gln (protein, UniProt P48546 22-466, looked up, variant R190Q)
Gastric inhibitory …: B1 Gastric inhibitory … with S110R, R169Q
B26: p.Gly438Ser (protein, UniProt P48546 22-466, looked up, variant G438S)
Gastric inhibitory …: B1 Gastric inhibitory … with S110R, G417S
B27: p.Arg300Trp (protein, UniProt P48546 22-466, looked up, variant R300W)
Gastric inhibitory …: B1 Gastric inhibitory … with S110R, R279W

Residue numbers refer to the chain shown, from its start.

The first data set concerns wild-type and variant SNAP-GIPR. Put plainly: Single-concentration GIP cAMP response by HTRF in AD293 cells. Format: cell-based, human. The conditions noted are these: cAMP responses to 100 pM GIP in AD293 cells; summary classification (decrease/neutral/increase). On the procedure: All variants were tested in parallel on each occasion to control for transfection efficiency differences between experiments.
For orientation: TR-FRET usually uses a lanthanide donor and a delayed reading to cut background.
In the case of B1, the cAMP response entry is on record as “decrease”.
B2: the cAMP response result is on record as “decrease”.
As to B3, the cAMP response result is on record as “decrease”.
On the same count and under the same terms, with B4 the entry was “neutral”; with B5, “decrease”.
Consider B6, for which the cAMP response result is on record as “neutral”.
Turning to B7, the cAMP response entry was “neutral”.
Take B8: the cAMP response result was “decrease”.
Take B9: the cAMP response entry was “decrease”.
Still for that read-out and setting: with B10 the entry was “neutral”.
For B11, the cAMP response entry is recorded as “increase”.
The same measure, in the same setting: in the case of B12 it was “neutral”; in that of B13, “neutral”; in that of B14, “decrease”.
On to B15, for which the cAMP response entry was “neutral”.
As to B16, the cAMP response result is recorded as “decrease”.
On to B17, for which the cAMP response entry is on record as “decrease”.
On to B18, for which the cAMP response entry was “decrease”.
B19: the cAMP response entry is given as “decrease”.
With B20, the cAMP response result is recorded as “decrease”.
Regarding B21, the cAMP response entry is “increase”.
As for B22, the cAMP response entry is “neutral”.
On to B23, for which the cAMP response result is recorded as “increase”.
With B24, the cAMP response entry was “neutral”.
Take B25: the cAMP response entry was “decrease”.
Turning to B26, the cAMP response entry is “neutral”.
Take B27: the cAMP response entry is recorded as “decrease”.

Another data set shares this test system. The experiment in a line: Surface SNAP-GIPR expression (SNAP-tag labelling) in AD293 cells. It is filed as cell-based, human. The note with it: level of surface expression, based on in vitro functional data in AD293 cells; summary classification. On the procedure:
Twenty-four hours before the experiment, AD293 or INS-1 cells were reverse transfected with GIPR variant or wild-type plasmids using Lipofectamine 2000 in 96-well, clear-bottom, black microplates precoated with poly-D-lysine. All variants were tested in parallel on each occasion to control for transfection efficiency differences between experiments. Cells were then labeled using the cell-impermeant probe SNAP-Surface Alexa Fluor 647 (500 nM, New England Biolabs, USA) for 10 min at room temperature to label only surface GIPR. […] Several fields of view (FOVs) were acquired within each well using a 20X, 0.75–numerical aperture (NA) air objective. Surface GIPR fluorescence was quantified after flat-field correction using BaSiC ([72]) and segmenting using Phantast ([73]), which generates a mask based on the phase contrast images to demarcate cell versus noncell. Wide-field imaging of the surface-specific labeling achieved by SNAP-Surface probes means that surface expression can be established from whole-cell fluorescence, after subtracting nonspecific fluorescence from a separate well containing nontransfected cells processed in parallel from the same experiment. Data were normalized by dividing by the average specific signal across each experiment, or by the wild-type value, as indicated in the figure legends.
As to B1, the “Surface expression” value was “neutral”.
Consider B2, for which the “Surface expression” value is “decrease”.
For the molecule B3, the “Surface expression” value is “decrease”.
As to B4, the “Surface expression” value was “neutral”.
With B5, the “Surface expression” value is on record as “decrease”.
In the case of B6, the “Surface expression” value is reported as “neutral”.
As for B7, the “Surface expression” value is on record as “neutral”.
As to B8, the “Surface expression” value is on record as “decrease”.
For the molecule B9, the “Surface expression” value is on record as “neutral”.
For the molecule B10, the “Surface expression” value is “neutral”.
As for B11, the “Surface expression” value is on record as “decrease”.
On the same count and under the same terms, in the case of B12 it was “increase”; in that of B13, “neutral”; in that of B14, “decrease”.
B15: the “Surface expression” value is “neutral”.
As for B16, the “Surface expression” value was “neutral”.
For B17, the “Surface expression” value is given as “decrease”.
The same measure, in the same setting: with B18 the entry was “decrease”; with B19, “decrease”.
Same read-out and setting: with B20 the entry was “decrease”.
As for B21, the “Surface expression” value is “neutral”.
The same measure, in the same setting: in the case of B22 it was “neutral”.
As for B23, the “Surface expression” value is listed as “neutral”.
Regarding B24, the “Surface expression” value is on record as “neutral”.
In the case of B25, the “Surface expression” value is on record as “decrease”.
Turning to B26, the “Surface expression” value is “neutral”.
Consider B27, for which the “Surface expression” value is on record as “decrease”.
